Experimental data as given in the DeepSol protein solubility set.

Assay: soluble on expression in E. coli; label from the status in PepcDB or PDB records

| Sequence | soluble on expression in E. coli |
| --- | --- |
| NRSLNELSLSDILIAADVEGGLHAVDRRNGHIIWSIEPENFQPLIEIQEPSRLETYETLIIEPFGDGNIYYFNAHQGLQKLPLSIRQLVSTSPLHLKTNIVVNDSGKIVEDEKVYTGSMRTIMYTINMLNGEIISAFGPGSKNGYFGSQSVDCSPEEKIKLQECENMIVIGKTIFELGIHSYDGASYNVTYSTWQQNVLDVPLALQNTFSKDGMCIAPFRDKSLLASDLDFRIARWVSPTFPGIIVGLFDVFNDLRTNENILVPHPFNPGDHESISSNKVYLDQTSNLSWFALSSQNFPSLVESAPISRYASSDRWRVSSIFEDETLFKNAIMGVHQIY | soluble |
| SLHVTELTAFLVPLPLKREIKHASFTRTESINLLIRCKLSNGTIGWGEGVPRPYVTGETPEGCLQQLSQSNLHPALMQSASNWPEVIAICDALQFNNDSDDSRGCGSNSLRCAVELSLLDAFGRHFGQPVSAVVPHVAEAAEIHVRQPRVRYSTTITSSGAKSERISALKMRAYGFAQCKIKVGVDGQDDPSRVARIRRWIGGGVDLRLDANEAWRPEEVAEKMRPLREFGVTCIEQPVAHDQVDALASLRESIGVPIMLDESLTSRMDAERAIELGTCDLFNLRLSKCGGFLSCLRLAALARASGLGYQLGCHPGESGVLSAAGRHWASSVRDIRYLEGSYDRHLLTTLPTQEDITFRYGGWAPALDSPGLGVTIREDWLRQNAKAERTFVVEAQ | soluble |
| MGSDKIHHHHHHMEQKICVIGFSGGQDSTTLAVWAKKRFKKVCLVGFDYAQKHSVELECAQKIASLLQLPYEIIPLDFLENITRSALFKNSNDLIGHSHAQNKDLPNSFVPNRNAIFITLLHSYAQKLGASNIALGVSQADFSGYPDCKEDFIKSIEHALNLGSNTAIKILTPLMFLNKAQEFQMAKDLGVLDLVIKETHTCYQGERKILHAYGYGCDKCPACQLRKKGFEEFQANKK | not soluble |
| MGSDKIHHHHHHMRKLGFVLFVLITAVMTAQEEPLVSNIFQDTYILDALADISAQTGIPIIADTTVTGFITMELNEVPLEQALKMILMPGGYVFKKMDGFYLVGSPDPANPAFRYLAVTKTYKLKYITTADAQELLPAVYKSYVKFNEKNNMVTITAPEEIIQEFEEDLKKIDIPIPQVKISVIVTEVSKDYSNELGLNSLDYSFGSGQEFNENWSATLGLVTGIIDVQTDVFGQILAQLKLLEEDQKAKITADPWIIVKSGEKASLFLGERQVVLLQAEGAVSRIESIDVGVSIDIQPRVMDKEELELTLSPKVSHFAGEKLGTFAVKQNELSTTLFLKNGQTVVISGATIEDSAQTSSGVPILNKIPLIRYLFGGTTKKDSQKELYIFIKAEIQGSE | not soluble |
| SSSGYSSLEEDEDFFFTARTSFFRRAPPGKSRSGQPDVEKEKETHNYLSKEEIKEKVHKYNSAVTDKLKMTLNSNGIYTGFIKVQMELCKPAQPSPEPSSGGCMNTLHISSTNTVGEVIEALLRKFLVTESPTKFALYKRCHREDQVYACKLSDREHPLYLRLVAGPRTDTLSFVLREHEIGEWEAFSLPELQNFLRILDKEEDEQLQSLKRRYTAYRQKLEEALGEVWKPG | soluble |
| MAHHHHHHSLIDGLLITELNKLTPGSSYIFLDYDGTLVPIIMNPEQSLADPELIEMLTELRSKYKLFIVSGRSPEEIKRFIPLDLNLICYHGACSIVNGKTYYYNNAQSFLGIFNEIYQSSLNLVNEFPGLRIYKKNLAVLYHFGLMKPQDVPALERVIVEISQKEHVDVYKGKMIFELRVPGVNKGIAIKNVRDEETALIAGDDATDECSFKYNEDAITIKVGPGKTSAHFRVNDYSEMREVLKLLLNNAEKRSEG | soluble |
| MAHHHHHHMSTRTILTAGEAAEVLASVRYVLLDVDGVLWAGKHVLPNIPETLLYLRLREKQIRFLTNNASISRAGLVREFQRRGIQGVREGEVYNSGFAAALRLQSLFTANKSTGSGRPLVERNIFVIGEEGLHEELRRVLAPGYIAYGMELHDAEKCGGYDAHVVASAWKQRVLPAPLQSSATSCGIAATGHAAGGISISDLSPAAVVVGLDMHFNMLKLAYASLCLQERPAAQTAGTSSSTPTYFIATNEDPQIPVGEDFLLLPGAGGMVSALRTVSGRSPDFVCGKPHVDMAKVFFEAEGITDPQQCLMVGDRLTTDIAFGNAAGCKTMLVLSGAEKMDRVRQAERDGHVSLLPDFIAPSLAIFLPPA | soluble |
| MGSDKIHHHHHHDDDNDYYRYALPNALVTVKPVADNSFFMQLDDSTTLLPVNMKNSPYGEKEVRALVNFDPVNESSGEYDKAVHINWIDSILTKPIAGDLGDKNDEVYGTDPVDMINDWVTIAEDGYLTLRFRTMWGNRSQAHFVNLLMSKDAENPYEVEFRHNAFGDVYGEPADGLVAFNLDSLPDTEGKTVKLKLKWKSFNGEKTAEFDYCTRKSTPANSAAITAGRSVLRLK | not soluble |
| GSHMDHLPMPKFGPLAGLRVVFSGIEIAGPFAGQMFAEWGAEVIWIENVAWADTIRVQPNYPQLSRRNLHALSLNIFKDEGREAFLKLMETTDIFIEASKGPAFARRGITDEVLWQHNPKLVIAHLSGFGQYGTEEYTNLPAYNTIAQAFSGYLIQNGDVDQPMPAFPYTADYFSGLTATTAALAALHKVRETGKGESIDIAMYEVMLRMGQYFMMDYFNGGEMCPRMSKGKDPYYAGCGLYKCADGYIVMELVGITQIEECFKDIGLAHLLGTPEIPEGTQLIHRIECPYGPLVEEKLDAWLATHTIAEVKERFAELNIACAKVLTVPELESNPQYVARESITQWQTMDGRTCKGPNIMPKFKNNPGQIWRGMPSHGMDTAAILKNIGYSENDIQELVSKGLAKVED | soluble |
| MAHHHHHHMSSVSSPPLTDAEVRELSTAEIRLNLERCSRLLSQASLLRRLRDGGEGIRHRSELFAKELERRHTVEAANGDASTRLASSTLTEALKRENEAAILSESTHNATDAAREIAQKYRDQRIDVEATVRRIYEGILSESEIQRILHSVPPRFFLTYAETCEMERQLARDARKVELQKLAAQAARLSATPQ | soluble |
| MSAATATRSQLALQSYLDALLQEATFEDLEPLVETPPAPAPAPLKPVALAVAEVATPAPALETLPVDHGFDEFEAAVLEEQVRDARLVPPAPAALLDEPTTLRELPVEPRPHEVIELRVPSAPASVGEPPLLDLPLLDDGRPAWAAEPFECLLFD | soluble |
| MTNSQTVSLIGPTQMAPQSTPPPPVNELWFIDAQAMFQNYANLRSFSKSNANEINTTIGGFVFGRKARKQVIHVLFAYAEDLTESNRQFLESSLSADIELVGNLNIDGQSQILPGGQFTLQLTSRMLENRSISEFLDMNVMFNNEHVLMEGASCVSRVGYEWSLRAGREQEDVKSAAERLSMASFRFTYLNAEHGLVIREQKPEAAQQKYLDKFSKGAVPYKDVIEFTAMQSLTRDTSNDTEDQKLVPTVKVTKDNKHFTRLVTIGEVVFPAFFGDSSLDLYKRSREAFNRRANNTMMVTVNGIRAGRGVTTTTSATYLPPGWVSLLHLQLPTKWTDNEQRNYRIRLHKLFNLPSSKPVLRLSQALALHSESARLTNKKLIREPHLSITNYQPVGEITTVNGPYNYHHYMQDGIDDSGWGCAYRSFQTIWSWFILNGYTDKPVPSHREIQQALVDIQDKQAKFVGSRQWIGSTEISFVLNELLKLECRFIATNSGAEVVERVRELARHFETSGTPVMIGGNMLAHTILGVDFNDTTGETKFLVLDPHYTGSEDIKTITSKGWCAWKPASFWSKDHFYNMVLPQPPSDAI | not soluble |
| MSEEKIYDVIIIGAGPAGMTAAVYTSRANLSTLMLERGIPGGQMANTEDVENYPGYESILGPDLSNKMFEHAKKFGAEYAYGDVKEVIDGKEYKTIIAGKKEYKARAIIVASGAEYKKIGVPGETELGGRGVSYCAVCDGAFFKGKELVVIGGGDSAVEEGVFLTRFASKVTIVHRRDTLRAQKILQDRAFQNEKVDFIWNHTIKEINEANGKVGSVTLVDVNSGEEKEVKTDGVFVYIGMLPLSKPFVELGITNENGYLETNERMETKVPGIFAAGDVREKMLRQIVTATGDGSIAAQSAQHYVEELLEELKTVSEK | not soluble |
| MAHHHHHHMQSSISQEKLQLMQKNFNLVDLNKDGKIAAEEFKTLLRLLGQTKTEKEMDEMVDKHFEDAPIGEEQQQDAAEAADKGGANEGTPSTAKQLGGQ | soluble |
| MGSDKIHHHHHHSTPTEFKRPSLKVLFGSFVGEYPGIIAQEKGFFKAQGVDVELIHKRYIQLEQANFSAGKYDGMTSSLGNLIILSAINLDIQGVIVIDESTGADVVVAQPQIKTVADLKGKKLGANLGGFSELFITEMLKTNNLNSNDVNLVRLEALKIPQNLKKNFIQAGHTWEPYLSEAMKIGGNILFTSKQTPGLILDLMIFRGDVIRDRPGDIRAFVQGWLQASEYWKENVQEGNTIISKALKIPSNTISLEGISLTSLDENQNLFQFSNPNSIDKIAKVYADFFIRAGNLTRIPELKSLFNSSFLNPAS | not soluble |
| MGSDKIHHHHHHMLERYQGEDGRRLRVEAALDSKLAKGNQALAEAIADVATLRQFKAGQALIEQGGDDNQVYILISGSCDVIVNAKVVNRRGPGDHVGEMAAIQPAQRRSATIMATEQVLAFELPEPVFANLAATYPDIYRLIAKDLARRLLQRNAVTGTPRKRIRVFVISSVEALPIARAIQTAFEYDPFTVIVWTDGVFKVANYTLQSLEDEIDNSDFAIAIAHPDDKVESRQAQWPQPRDNVIFELGLFMGRLGRARAILMEPRDEKVKLPSDLAGVTTIGYRFDPDGDTQAALAPACNRLRNHIVELGLAVG | not soluble |
| LESYLLDSERSKVIREMNETYTEFNYKETKKNLEGLASSLEHKYLVEASSLDEGLDEILTLHRLKVPGLLRISFLTTNLIELARETARDIMGRVRGWSKGNQVLRWLSCVFLHARNSLSK | not soluble |
| GPGSMSNEEVFRISNVSGYSVEIPLATAKELLGMLNMDQVFRAARAGTDDTDESGVDDGDTEPVKAEGMDYGKEVLDVVRAYALLPPDKRTSSIPRPLTQDLRSVVYAGEMELVEKAEREDYLVDLLNCALFLRFSQLSALCAAYMAVRIDEIAKAAPDIMEGAERIRKFLHMQNEWTEEEMGHLRREMEYAKSVDPNVY | soluble |
| MSQGYAIELYFDPALENQVLKAWNVFARRQISTYLINNESRPHITLFSTTSSIDSTKLEPIIKSFSSKQEPISLSFSSIGSFSSDDNALFLSPTPSLSLIQLQLQLCEVIKKEGFEIGEEYRVDSWVPFCSVAVDVPKSRISEGFLVLRDLKLLVYGYAMDIGLVEFSPVREVFSFGLGNNLES | soluble |
| MMIDPELRPAFLPAGKLRAAINLGNPILAGTDAAGQAVGVSVDLAREFARRLNAGIELRVFDTAGQSVDAVTREEADIGFFAIDPARGAGIAFTGPYVLIEGAYLVRDDSPLQANEDVDRAGKRVTVGKGSAYDLHLTRALQHAEIVRAASSQAVVDTFLARRLDVAAGVKQQLQADARRVGGVRLLPGRFMVIRQAMGLPKARGDAAAACLDAFVESMKGNGFVAQALARHGLEHHHHHH | not soluble |
| MGSDKIHHHHHHMKLTCMQEDLKRGLAAVGHAVAGKSTLPVLANILLATDEGRLKLTATNLEVGINRWISATITRDGAVAVPAKLLTDVVGGLPNDKVTLSLDQKTQTLRVECGRFVSNIKGVDADEFPSLPTVSAQTPLVSLPAEVWQEAIDQVAFAAATDESRPILTGVLVRTRDQQVTLVAADGFRLAMRTIQLSAPVAHAVDCLIPARTLSELARIIGDTDAEVAMVYTPGGSHVLFHTENIEVVSRLIEGRFPDFERIIPQQYLTRMVLDNSELAKAVKLASFFAGSSQNVVKLKIEPASELAPGRVVISANAAELGDNTSELDGSVTGEGGVIALNVRFLADAIAAVHSNQIAFEMQSAQSPAVFKPVGQDGYIHIVMPMSMR | not soluble |
| MNIKEKIVVLRNTEDGSFLKSFKNKKDVLAYNVELTDSIQLASFLPEEAYNIQKEKIDNLAETLGCDVVVIEASYDLKFVDGEDVPELTKEQKVKSMVNGMFEQVFGGE | not soluble |
